# Several values for one entry are separate records, joined by “and”; a condition that tells them apart may be missing. Equal values may be shown once. Non-standard residues stand in square brackets, D forms with d. No end group written: not given here. pY = N[C@@H](Cc1ccc(OP(=O)(O)O)cc1)C(=O)O; Rhodamine = not defined here
# T1: SOCS6 SH2 domain (human, UniProt O14544 384-491)
# T1 construct: SOCS6, human; source: bacterial expression, purified
# T1 sequence (looked up): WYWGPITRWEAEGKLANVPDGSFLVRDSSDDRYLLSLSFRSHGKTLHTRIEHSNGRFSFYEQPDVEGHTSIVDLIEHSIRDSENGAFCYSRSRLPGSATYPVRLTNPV
# T2: GRAP2 SH2 domain (human, UniProt O75791 58-149)
# T2 construct: GRAP2, human; source: bacterial expression, purified
# T2 sequence (looked up): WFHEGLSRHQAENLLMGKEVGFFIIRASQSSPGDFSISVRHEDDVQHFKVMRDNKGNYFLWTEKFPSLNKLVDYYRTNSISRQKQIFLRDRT
# T3: ABL2 SH2 domain (human, UniProt P42684 173-263)
# T3 construct: ABL2, human; source: bacterial expression, purified
# T3 sequence (looked up): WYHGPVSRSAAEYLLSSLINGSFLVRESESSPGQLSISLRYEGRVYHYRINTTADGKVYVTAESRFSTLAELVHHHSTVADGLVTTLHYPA
# T4: SH2D1B SH2 domain (human, UniProt O14796 5-101)
# T4 construct: SH2D1B, human; source: bacterial expression, purified
# T4 sequence (looked up): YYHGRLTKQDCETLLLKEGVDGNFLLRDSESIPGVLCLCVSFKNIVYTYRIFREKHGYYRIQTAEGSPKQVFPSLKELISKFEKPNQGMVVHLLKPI
# T5: MATK SH2 domain (human, UniProt P42679 122-211)
# T5 construct: MATK, human; source: bacterial expression, purified
# T5 sequence (looked up): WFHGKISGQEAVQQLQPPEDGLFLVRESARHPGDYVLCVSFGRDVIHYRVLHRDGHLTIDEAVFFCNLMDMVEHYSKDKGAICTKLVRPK
# T6: BCAR3 SH2 domain (human, UniProt O75815 154-253)
# T6 construct: BCAR3, human; source: bacterial expression, purified
# T6 sequence (looked up): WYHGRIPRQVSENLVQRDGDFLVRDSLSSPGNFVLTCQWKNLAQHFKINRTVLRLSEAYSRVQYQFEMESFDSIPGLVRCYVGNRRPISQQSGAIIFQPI
# T7: TNS3 SH2 domain (human, UniProt Q68CZ2 1172-1282)
# T7 construct: TNS3, human; source: bacterial expression, purified
# T7 sequence (looked up): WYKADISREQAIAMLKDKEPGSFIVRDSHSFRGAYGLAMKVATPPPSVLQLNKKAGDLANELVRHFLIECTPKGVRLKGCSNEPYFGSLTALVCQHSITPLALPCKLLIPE
# Assays:
# Assay in all cases: peptide or protein array; SH2/PTB proteins spotted on aldehyde slides, rhodamine peptide titrated in buffer B (20 mM HEPES, 100 mM KCl, 0.1% Tween-20, 5 mM DTT, pH 7.8), 1 h at room temperature; replicate assays
# Details in all cases: both partners purified
# [1] = molecular target: T1, SOCS6 SH2 domain
# [2] = molecular target: T8, CRK SH2 domain (human, UniProt P46108 13-118)
# T8 construct: CRK, human; source: bacterial expression, purified
# T8 sequence (P46108 13-118): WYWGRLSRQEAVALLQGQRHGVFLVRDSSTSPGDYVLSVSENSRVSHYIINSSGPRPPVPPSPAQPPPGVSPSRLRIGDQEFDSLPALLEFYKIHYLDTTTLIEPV
# [3] = molecular target: T2, GRAP2 SH2 domain
# [4] = molecular target: SYK tandem SH2 domains (human)
# [5] = molecular target: T9, PTPN6 tandem SH2 domains (human)
# T9 construct: PTPN6, human; also called PTPN6-NC; source: bacterial expression, purified
# [6] = molecular target: T10, PTK6 SH2 domain (human, UniProt Q13882 78-170)
# T10 construct: PTK6, human; source: bacterial expression, purified
# T10 sequence (Q13882 78-170): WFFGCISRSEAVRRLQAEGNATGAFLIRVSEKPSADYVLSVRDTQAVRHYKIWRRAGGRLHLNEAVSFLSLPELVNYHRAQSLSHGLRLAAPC
# [7] = molecular target: T11, FGR SH2 domain (human, UniProt P09769 144-241)
# T11 construct: FGR, human; source: bacterial expression, purified
# [8] = molecular target: T3, ABL2 SH2 domain
# [9] = molecular target: T4, SH2D1B SH2 domain
# [10] = molecular target: T5, MATK SH2 domain
# [11] = molecular target: T6, BCAR3 SH2 domain
# [12] = molecular target: T7, TNS3 SH2 domain
binder,measurement,setting,value
"Rhodamine-ETDG[pY]VAPLTCSD (reading uncertain) [ErbB2 pY1127 phosphopeptide, rhodamine-labelled, for protein microarrays]",Kd,[1],8930 nM and 5200 nM
same,Kd,[2],7710 nM
same,Kd,[3],19400 nM
same,Kd,[4],1300 nM and 957 nM
same,Kd,[5],1620 nM
same,Kd,[6],4180 nM and 1570 nM
same,Kd,[7],5180 nM
same,Kd,[8],17 nM and 14.6 nM
same,Kd,[9],2280 nM
same,Kd,[10],4400 nM
same,Kd,[11],726 nM
same,Kd,[12],5960 nM

# — article PMC3433420, “Comprehensive Binary Interaction Mapping of SH2 Domains via Fluorescence Polarization Reveals Novel Functional Diversification of ErbB Receptors” (PLoS ONE, 2012)
